B1: TPR t1 (parent)
chain: GACCAAUCUGCCCUCAGAGCUCGAGAACAUCUUCGGAUGCAGAGGAGGCAGGCUUCGGUGGCGCGAUAGCGCCAACGUCCUCAACCUCCAAUGCAUCCCACCACAUGAUGAUGCCUGAAGAGCCUUGGUUUUUUG

Variants of: B1
Assay: polymerase ribozyme fitness, log enrichment relative to wild type (log ratio); higher = more active; in vitro selection for triplet polymerase activity
Method in brief: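 Mutant libraries for each subunit of a heterodimeric triplet polymerase ribozyme were made by PCR and then transcribed. Each library underwent one round of in vitro selection in triplicate: annealing with a biotinylated primer, the partner subunit and triplets, frozen incubation at −7 °C, gel excision of extended constructs, streptavidin-bead capture and RT-PCR. Input and output libraries were Illumina-sequenced, and only genotypes with ≥10 input reads and ≥1 read per output were kept. Fitness is the logarithm, base 2, of genotype enrichment over wild-type enrichment, computed from inverse-variance-weighted replicate averages.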

Row | Variant | polymerase ribozyme fitness (log ratio)
1 | G36U U59A A90G C97G U106C | -1.98
2 | A37U G69C | -1.75
3 | A37C C56G U125A | -1.58
4 | G36U G48U U78A | -2.21
5 | A37U G93U | -1.86
6 | A37U U59C C70U | -1.46
7 | G36U G44A C72A C94G C123G | -4.22
8 | A37G C40U G51U C82G | -3.82
9 | A37U U106C A119G | 0.31
10 | G36U G61A G117U | -5.19
11 | A37G C72U C88G C104U G113A | -4.89
12 | A37U C72A | -0.493
13 | A37G C56U | -0.0501
14 | A37U C115A | -0.816
15 | A37U C115U | -0.707
16 | A37U A74C C102A C104U | -2.41
17 | G36U U78G C97A | -0.315
18 | A37U G57C C85U U125A | -1.95
19 | A37C G45A A83C A100U G113C | -4.29
20 | A37U U125A | -1.35
21 | A37U U112A U125C | 1.04
22 | A37C G39C | -4.38
23 | G36U U38C C72A C115G A118U C124G U131C | -5.85
24 | A37U G61C | -1.86

Row | Variant | polymerase ribozyme fitness (log ratio)
25 | A37U G61U | -0.28
26 | A37G G60U U112C C123G | -0.195
27 | A37C C49A A66C C104U U125G | -1.63
28 | A37G G57A U106C G120C U129A | -3.11
29 | A37U C97U | -2.15
30 | A37G U55C C56A C88A | -4.55
31 | A37G C70U | -0.719
32 | U38A A43U C53U U112C G135C | -0.362
33 | A37C C64U U92G | -2.59
34 | A37U G71A | -1.12
35 | A37G G47C C64U U87A G120C C124G | -3.3
36 | A37C G39A C62U | -3.21
37 | A37U G120C | -0.129
38 | A37U G63C C104U U116C | -1.47
39 | G36U G42U | -3.46
40 | A37C G48C U54C G113A | -2.76
41 | A37U U81A C101A G110U | -5.35
42 | A37U G57A A66C | -4.07
43 | A37U G58A A100C C114U U133G | -4.99
44 | A37G C114U U129C | -3.17
45 | A37G C64A | -6.74
46 | A37U G63C A68U U78A U106A | -5.67
47 | G36U C104U | -1.41
48 | G36U G58C G71C A91U G120U | -4.22

Row | Variant | polymerase ribozyme fitness (log ratio)
49 | A37G G44C G48U C73A | -2.25
50 | A37U C72G U78C A119U | -1.26
51 | A37U A41C U55C U87G C88U | -2.92
52 | A37G C64U C73G U109A | -6.41
53 | G36U G48U | -2.23
54 | G36U G48A | -1.52
55 | A37C U55G C76U A105U | -2.68
56 | G36U U78G C115G | -4.29
57 | A37C G61U U109A | -5.9
58 | U38A C49U C88U | -1.59
59 | A37C A68G | -2.51
60 | A37G U96A | -3.44
61 | A37U A43G G60A | -2.78
62 | A37U C56G | -1.11
63 | A37C G60U C101G | -1.57
64 | G36U G60A C94U | -1.8
65 | A37C C72U G120U A121C | 0.205
66 | A37U G77U | -0.679
67 | A37U G69C C89U | -2.29
68 | A37U G47U C73U C101G C114U U126G | -7.11
69 | A37C U54A G93C | -1.23
70 | U38A G39U G61U C89U A111C | -3.54
71 | A37U G57A C89G | -3.91
72 | A37C A95G | -0.966

Row | Variant | polymerase ribozyme fitness (log ratio)
73 | A37C C56A U78C U130C | -0.27
74 | G36U G71U G117A | -4.25
75 | G36U G71C | -1.92
76 | A37U G39U C72U U125G | -3.21
77 | U38A G48C G63C C85U G110A | -5.19
78 | A37G C115U | -0.85
79 | A37G C70U C79A | -3.05
80 | A37U A74C A83U G117U | -3.26
81 | U38A C101A A119U A121U G122U | -2.88
82 | A37C A75U C89U C102A | -2.92
83 | U38A G45U G57U | -2.52
84 | A37U G48A C97U G110U U125C | -6.59
85 | G36U U54G G69A | -5.06
86 | A37G A121G | 2.3
87 | A37U G48U G60A C82G A121U | 1.39
88 | A37C G42U C88A A111G | -4.05
89 | A37G G113C | -2.15
90 | A37G G113A | -1.4
91 | A37C A118U | 0.469
92 | U38A C86G A118U | -1.76
93 | A37U C86U A105G A121C U132C | -1.31
94 | A37U U59G C124G | 1.68
95 | U38A C73U C114A A121U | -1.65
96 | G36U U112A | 0.888

Row | Variant | polymerase ribozyme fitness (log ratio)
97 | A37U A91U U130A | -2.83
98 | A37G A84C | -0.444
99 | A37U C89A A95U C123A | -3
100 | A37U C73A | -0.559
101 | A37U C70G C97U G117U | -5.65
102 | A37G U92C U106C G110A | -3.53
103 | A37U G63C A95C | -1.93
104 | A37U C53U G58C A66U C76G U106C | -2.44
105 | A37U C53A G63A C94G G120C U131A | -3.11
106 | A37C G48C U54C G63A A74U G113A | -5.41
107 | A37U G44A G52U C79A G113U G120U | -5.01
108 | G36U C124G | 0.74
109 | G36U C124U | 0.315
110 | A37U C56G U87G | -1.26
111 | A37U C53G U116A | -3.56
112 | A37U G52U | -1.37
113 | A37C C56G | -1
114 | A37U C82G | -0.955
115 | A37U G51C C88A | -5.1
116 | A37U C86A | -0.797
117 | G36U G39A C53A C94G C124G G127C | -2.11
118 | G36U G44A G63A | -3.52
119 | A37G C76G C80G | -6.38
120 | U38A G42U G63C C79U | -3.1

Row | Variant | polymerase ribozyme fitness (log ratio)
121 | G36U U78C C101U C123A | -1.09
122 | A37U C72U A83G C86U | 0.0963
123 | A37U G44A A83C G120C U130G | -1.38
124 | A37G C98U | -1.79
125 | A37G U81G A84C | -5.14
126 | A37U G52C G120C | 0.23
127 | A37C G63C G77C C88U A105U | -5.64
128 | U38A G44U G52U C72G | -4.73
129 | A37G C104U G113A U130G | -1.23
130 | A37G G39C | -2.69
131 | A37C G42U G48C A50U C70U G120U C124U | -3.73
132 | U38A A41U G44U G113A | -5.6
133 | A37U A46U U131G | -2.61
134 | A37C A46G G61U C64U | -5.42
135 | A37C G44A A50U G120U | -3.3
136 | A37U C114A | -0.828
137 | G36U U132A | -0.893
138 | A37G G42C | -1.89
139 | A37U G48U U55A | -1.56
140 | A37U G60A G93C U112C C115G G122U U130A | -6.13
141 | A37G C53G G69A G110U U132C | -6.38
142 | A37G U78A C82G A119U | -0.542
143 | G36U G120U | 0.153
144 | G36U G120C | 0.124

Row | Variant | polymerase ribozyme fitness (log ratio)
145 | A37G U92A | -2.8
146 | A37U C70A | -1.11
147 | A37U C80G | -5.42
148 | A37C G48U A108U G120C | -5.53
149 | A37G C40U | -1.48
150 | U38A G42A | -2.86
151 | A37U C97G U112C | -4.07
152 | G36U C101A U130C | -1.6
153 | A37C C49A G69U G77C C85A | -3.32
154 | A37U U54A C123U C124G | 1.44
155 | A37U A83U U106A | 0.192
156 | A37C C40U U55C A91C | -3.28
157 | A37C G61A C73U | -0.816
158 | A37U A83U U96A C124U U131A | 1.19
159 | A37C C85A G113C | -3.33
160 | G36U G60A G113A | -1.62
161 | A37U C72U A75U U78G C124A | 1.33
162 | A37C A41G C53A C88U | -0.41
163 | A37U U131C | -0.648
164 | G36U G71A G120C C123G | -1
165 | A37C U54G G57A | -1.35
166 | A37U G44C A100G C104U C115A | -5.44
167 | U38A A41C C72U G127U | -4.53
